± gives the uncertainty stated by the source.
Assay: self-splicing fitness, log relative to wild type (ln ratio); higher = more splicing; Tetrahymena group I intron in knt gene, E. coli kanamycin selection, DiMSum; sequences stand for … in CUCUCU…GGAGGGAAAAGUUAUCAGGCAUGCACCUGGUAGCUAGUCUUUAAACCAAUAGAUUGCAUCGGUUUAAAAGGCAAGACCGUCAAAUUGCGGGAAAGGGGUCAACAGCCGUUCAGUACCAAGUCUCAGGGGAAACUUUGAGAUGGCCUUGCAAAGGGUAUGGUAAUAAGCUGACGGACAUGGUCCUAACCACGCAGCCAAGUCCUAAGUCAACAGAUCUUCUGUUGAUAUGGAUGCAGUUCACAGACUAAAUGUCGGUCGGGGAAGAUGUAUUCUUCUCAUAAGAUAUAGUCGGACCUCUCCUUAAUGGGAGCUAGCGGAUGAAGUGAUGCAACACUGGAGCCGCUGGGAACUAAUUUGUAUGCGAAAGUAUAUUGAUUAGUUUUGGAGUACUCGUGGUCG
In short: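 Colonies from six replicate transformations of E. coli BL21(DE3) were pooled and amplicon-sequenced on an Illumina HiSeq 2500. The library placed an intron with all eight P1ex-region nucleotides randomised inside the knt kanamycin-resistance gene on pET-22b(+), and cells grew overnight at 37°C or 30°C on LB agar with or without 25 μg/mL kanamycin (plus 100 μg/mL carbenicillin, 50 μM IPTG, 0.2% rhamnose). Fitness is the DiMSum error-weighted combination of wild-type-normalised replicate fold changes, kanamycin versus none.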

Sequence | self-splicing fitness (ln) (30 °C) | self-splicing fitness (ln) (37 °C)
GGUUAGCAAUAUUACGUGUC | -1.03 ± 0.097 | -0.323 ± 0.12
GGUUAGCAAUAUUACGUUAG | -2.34 ± 0.13 | -1.69 ± 0.19
GUAAAGCAAUAUUACGAAUU | -2.11 ± 0.16 | -0.966 ± 0.18
GUAAAGCAAUAUUACGACAU | 0.272 ± 0.012 | 0.348 ± 0.032
GUAAAGCAAUAUUACGACGU | 0.341 ± 0.11 | 0.169 ± 0.12
GUAAAGCAAUAUUACGAGCG | -0.0732 ± 0.09 | 0.212 ± 0.12
GUAAAGCAAUAUUACGAUCG | -0.724 ± 0.075 | 0.373 ± 0.11
GUAAAGCAAUAUUACGAUGG | -1.81 ± 0.081 | -0.952 ± 0.1
GUAAAGCAAUAUUACGCAGG | -1.96 ± 0.12 | -0.168 ± 0.14
GUAAAGCAAUAUUACGCCAA | -0.7 ± 0.17 | -0.982 ± 0.26
GUAAAGCAAUAUUACGCCAU | -1.89 ± 0.1 | -0.44 ± 0.12
GUAAAGCAAUAUUACGCGGA | -1.51 ± 0.086 | -1.3 ± 0.11
GUAAAGCAAUAUUACGCUGU | -0.603 ± 0.083 | -1.16 ± 0.12
GUAAAGCAAUAUUACGCUUA | -1.27 ± 0.11 | -0.77 ± 0.14
GUAAAGCAAUAUUACGGCCA | -0.497 ± 0.11 | 0.704 ± 0.17
GUAAAGCAAUAUUACGGCUC | -0.0413 ± 0.071 | 0.298 ± 0.1
GUAAAGCAAUAUUACGGUCG | -0.377 ± 0.056 | -0.0786 ± 0.088
GUAAAGCAAUAUUACGUAGA | -2.33 ± 0.1 | -1.32 ± 0.12
GUAAAGCAAUAUUACGUUAU | -2.57 ± 0.14 | -1.23 ± 0.17
GUAAAGCAAUAUUACGUUCA | -0.419 ± 0.072 | 0.177 ± 0.12
GUAAAGCAAUAUUACGUUCG | -0.724 ± 0.061 | -0.407 ± 0.084
GUAAAGCAAUAUUACGUUUG | -2.28 ± 0.081 | -1.34 ± 0.094
GUACAGCAAUAUUACGACCA | -1.85 ± 0.25 | -0.829 ± 0.33
